T1: HEK293/mCACNG1 (Mus musculus, UniProt O70578)
T1 construct: mouse CACNG1 (mCACNG1); expressed in transfected cells
T1 sequence (O70578 1-223): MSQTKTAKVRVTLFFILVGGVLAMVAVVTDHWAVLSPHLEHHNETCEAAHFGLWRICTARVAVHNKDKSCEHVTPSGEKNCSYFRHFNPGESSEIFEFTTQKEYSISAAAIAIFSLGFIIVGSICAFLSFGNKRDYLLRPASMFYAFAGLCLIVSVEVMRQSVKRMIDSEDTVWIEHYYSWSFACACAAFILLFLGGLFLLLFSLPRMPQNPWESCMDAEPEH

B1: H1M31941N (antibody)
heavy: QVQLVQSGAEVKKPGASVKVSCKASGYAFTTYGITWVRQAPGQGLEWMGWISAYNGNTNYAEKVQGRFTMTTDTSTNTAYMELRSLRSDDTAVYFCARKGHYGSGTYYNPFGFDFWGQGTMVTVSSAKTTPPSVYPLAPGSAAQTNSMVTLGCLVKGYFPEPVTVTWNSGSLSSGVHTFPAVLQSDLYTLSSSVTVPSSTWPSETVTCNVAHPASSTKVDKKIVPRDCGCKPCICTVPEVSSVFIFPPKPKDVLTITLTPKVTCVVVDISKDDPEVQFSWFVDDVEVHTAQTQPREEQFNSTFRSVSELPIMHQDWLNGKEFKCRVNSAAFPAPIEKTISKTKGRPKAPQVYTIPPPKEQMAKDKVSLTCMITDFFPEDITVEWQWNGQPAENYKNTQPIMDTDGSYFVYSKLNVQKSNWEAGNTFTCSVLHEGLHNHHTEKSLSHSPGK
light: EIMLMQSPGTLSLSPGERATLSCRASQSVSSSYLAWYQQKPGQAPRLLIYGASSRATDIPDRFSGSGSGTDFTLTISRLEPEDFAVYFCQQYYGSPWTFGQGTKVEIKRADAAPTVSIFPPSSEQLTSGGASVVCFLNNFYPKDINVKWKIDGSERQNGVLNSWTDQDSKDSTYSMSSTLTLTKDEYERHNSYTCEATHKTSTSPIVKSFNRGEC
B2: H2aM31941N: anti-CACNG1 antibody; HCVR SEQ ID NO: 25, LCVR SEQ ID NO: 29, HC SEQ ID NO: 151, LC SEQ ID NO: 152 (antibody)
heavy: B1 heavy
light: B1 light

Tests used:
CACNG1^Hu/Hu myofibers = assay: Antibody binding to single myofibers ex vivo; parameters: species or system mouse; conditions: 100 nM antibody, 30 minutes; FIG. 2
Experimental: (§1) Single myofibers were isolated from either wildtype mice, mice that were homozygous for the deletion of CACNG1 (referred to as CACNG1 knockout mice), or mice that were homozygous for the expression of human CACNG1 in place of mouse CACNG1 (referred to as CACNG1^Hu/Hu). The gastrocnemius muscle was removed, collagenase digested, and single myofibers were isolated, washed, and incubated overnight at 37° C. at 5% CO2, in DMEM+10% horse serum. Following overnight incubation, single myofibers were incubated with 100 nM of each CACNG1 antibody or an isotype control antibody for 30 minutes. Myofibers were then washed twice in DMEM+10% horse serum, and subsequently incubated with 10 μg/mL of fluorescent-conjugated secondary antibodies for 30 minutes, washed twice in DMEM+10% horse serum, and then fixed with 4% paraformaldehyde (PFA) for 15 minutes at room temperature. Single fibers were then washed twice with PBS, stained with Hoechst for 5 minutes, washed once more with PBS, then transferred to microscope slides, cover slipped, and imaged using a Zeiss LSM 710 confocal microscope.

[1] = tested on: wildtype or CACNG1 knockout myofibers; assay: Antibody binding to single myofibers ex vivo; parameters: species or system mouse; conditions: 100 nM antibody, 30 minutes; FIG. 2
Experimental: as §1

C2C12 mouse myotubes = assay: High content imaging-based cell binding assay; conditions: Table 11-1, C2C12; NB = no binding detected
From the text: (§2) To test the ability of anti-CACNG1 antibodies described herein to bind, internalize, and deliver payloads, cell binding and indirect cell killing assays were developed with primary human skeletal myoblasts (Cook Myosite Cat #SkMDC SK-1111), C2C12 mouse myoblasts (ATCC Cat #CRL-1772), and HEK293 cells engineered to express human and mouse CACNG1 (HEK293/hCACNG1 and HEK293/mCACNG1, respectively). To generate the HEK293/hCACNG1 and HEK293/mCACNG1 cell lines, FuGEGE 6 (Promega, Cat #E2691/5/3) was used to transfect HEK293HZ cells with a human CACNG1 (hCACNG1; amino acid M1-H222, Accession #NP_000718.1) or mouse CACNG1 (mCACNG1; amino acid M1-H223, Accession #NP_031608.1) expression vector. HEK293HZ is a highly transfectable subclone of HEK293 cells (1) authenticated via STIR (short tandem repeat) profiling to be 81% identical to HEK293 cells sourced from ATCC). The HEK293HZ cell line was maintained in DMEM+10% FBS+1% L-glutamine/penicillin/streptomycin, while HEK293/hCACNG1 and HEK293/mCACNG1 cell lines were maintained in DMEM+10% FBS+1% L-glutamine/penicillin/streptomycin+500 ug/mL G418. […]
(§3) Relative binding of anti-CACNG1 antibodies was assessed across the entire panel of cell lines via imaging analysis. […] Images were acquired with a 10× objective on the Opera Phenix (Perkin Elmer) and relative fluorescence units (RFU) was determined using Harmony software (Perkin Elmer).

HEK293/mCACNG1 = target: T1, HEK293/mCACNG1; assay: High content imaging-based cell binding assay; conditions: Table 11-1, 293/mCACNG1; NB = no binding detected
From the text: as §2, §3

HEK293 Hz = assay: High content imaging-based cell binding assay; parameters: species or system human; conditions: Table 11-1, HEK293 Hz; NB = no binding detected
From the text: as §2, §3

HEK293 = assay: Indirect (secondary) cell killing assay; assay type: cell-based, human; conditions: Table 11-3; maximum % kill
From the text: as §2, with “ATCC).” for “ATCC). The HEK293HZ cell line was maintained in DMEM+10% FBS+1% L-glutamine/penicillin/streptomycin, while HEK293/hCACNG1 and HEK293/mCACNG1 cell lines were maintained in DMEM+10% FBS+1% L-glutamine/penicillin/streptomycin+500 ug/mL G418.”
An indirect cell killing assay was used to assess the ability of anti-CACNG1 antibodies to internalize and deliver payloads into cells. In vitro cytotoxicity of the anti-CACNG1 antibodies alone or in combination with Fab anti-human Fc or Fab anti-mouse Fc secondary antibodies conjugated to Duocarmycin DM (Moradec, Cat #AH-202-DD-50 or Cat #AM-202-DD-50) were evaluated using the CellTiter-Glo 2.0 Assay Kit (Promega, Cat #G9243), in which the quantity of ATP present is used to determine the number of viable cells in culture. […]

human CACNG1 nanodisc = target: T2, human CACNG1 nanodisc (Homo sapiens, UniProt Q06432); assay: Biacore binding kinetics of anti-CACNG1 antibodies to surface-captured human CACNG1 nanodisc; conditions: 25° C., 1:1 binding model
T2 construct: PΔΔCt RE (C); Flag (C)
Experimental: This Example relates to evaluation of binding kinetics of purified anti-CACNG1 antibodies described herein to a human CACNG1 nanodisc capture surface using real-time surface plasmon resonance biosensor technology with a Biacore T200 instrument.
Equilibrium dissociation constants (KD values) for nanodisc embedded human CACNG1 expressed with a C-terminal […] tag (human CACNG1 nanodisc; concentration 0.82 mg/ml) binding to purified anti-CACNG1 antibodies were determined using a real-time surface plasmon resonance biosensor technology with a Biacore T200 instrument. The CM5 Biacore sensor surface was derivatized by amine coupling with a monoclonal mouse anti-His antibody (Cytiva; Marlborough, MA). All Biacore binding studies were performed in a buffer composed of 0.01M HEPES, 0.15M NaCl, 1 mM CaCl2, 0.5 mM MgCl2, pH 7.4 (HBS-N++ running buffer). […]
The specific SPR-Biacore sensorgrams were obtained by a double referencing procedure. […] Kinetic association (ka) and dissociation […] rate constants were determined by fitting the real-time sensorgrams to a 1:1 binding model using Scrubber v2.0c curve fitting software. Binding dissociation equilibrium constants (KD) and dissociative half-lives (t %) were calculated from the kinetic rate constants as: […]

T2 sequence (Q06432 whole entry): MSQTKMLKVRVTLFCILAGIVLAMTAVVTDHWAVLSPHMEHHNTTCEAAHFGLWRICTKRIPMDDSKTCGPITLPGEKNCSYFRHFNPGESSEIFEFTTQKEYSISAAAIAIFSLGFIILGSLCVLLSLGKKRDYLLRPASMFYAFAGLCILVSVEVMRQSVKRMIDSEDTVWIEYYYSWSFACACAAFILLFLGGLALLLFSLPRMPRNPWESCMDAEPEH

Molecule	binding to CACNG1^Hu/Hu myofibers ex vivo (CACNG1^Hu/Hu myofibers)	binding to wildtype or CACNG1 knockout myofibers [1]	EC50 (C2C12 mouse myotubes)	EC50 (HEK293/mCACNG1)	EC50 (HEK293 Hz)	% KILL (HEK293)	ka (human CACNG1 nanodisc)	kd (human CACNG1 nanodisc)
B1	demonstrated binding	did not bind	> 100 nM	> 100 nM	> 100 nM	0.0%	–	–
B2	–	–	–	–	–	–	342000 M⁻¹ s⁻¹	0.000406 s⁻¹
